Reference: publication PMC10786891, “Massively parallel profiling of RNA-targeting CRISPR-Cas13d”
Numbering of substitutions follows the chain as printed. Names and notes keep the numbering of the source.

T1: EsCas13d, nuclease-dead (Eubacterium siraeum, UniProt B0MS50, R295A;H300A;R849A;H854A)
T1 sequence: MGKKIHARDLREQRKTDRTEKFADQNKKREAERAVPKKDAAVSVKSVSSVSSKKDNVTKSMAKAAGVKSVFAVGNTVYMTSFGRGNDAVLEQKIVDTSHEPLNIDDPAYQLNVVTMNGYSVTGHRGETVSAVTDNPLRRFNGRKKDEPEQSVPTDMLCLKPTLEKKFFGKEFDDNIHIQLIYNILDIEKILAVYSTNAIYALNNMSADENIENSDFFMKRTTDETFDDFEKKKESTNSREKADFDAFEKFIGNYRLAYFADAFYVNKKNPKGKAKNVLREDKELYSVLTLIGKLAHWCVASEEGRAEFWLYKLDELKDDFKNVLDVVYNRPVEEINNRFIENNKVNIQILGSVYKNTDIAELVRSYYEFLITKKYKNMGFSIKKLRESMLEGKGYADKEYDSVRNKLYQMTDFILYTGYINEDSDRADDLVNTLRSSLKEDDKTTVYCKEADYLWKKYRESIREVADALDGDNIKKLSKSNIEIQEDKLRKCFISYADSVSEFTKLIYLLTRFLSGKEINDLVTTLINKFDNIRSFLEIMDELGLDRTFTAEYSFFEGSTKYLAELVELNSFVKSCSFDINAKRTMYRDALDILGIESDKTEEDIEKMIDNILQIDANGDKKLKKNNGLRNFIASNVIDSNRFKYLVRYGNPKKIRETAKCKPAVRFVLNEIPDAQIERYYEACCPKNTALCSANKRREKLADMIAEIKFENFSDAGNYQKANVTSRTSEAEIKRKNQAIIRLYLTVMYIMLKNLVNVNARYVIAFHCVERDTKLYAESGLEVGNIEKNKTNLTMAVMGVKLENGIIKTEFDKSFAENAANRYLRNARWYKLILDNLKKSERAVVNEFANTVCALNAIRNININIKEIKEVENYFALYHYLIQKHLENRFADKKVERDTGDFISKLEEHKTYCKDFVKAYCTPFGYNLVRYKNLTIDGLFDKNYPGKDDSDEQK

B1: target 1 insU 3' of 13,insA 3' of 5 (mixed)
RNA 1: CACCCGUGCAAAAAUGCAGGGGUCUAAAACUGAGCGGAUAACCUCUCUAUGG
RNA 2: GGGAAUGGAUCCACAUCUACGAAUUCGUACCAUAGAGAGUGUUAUCCGACUCACCGAGAUCGGAAGAGCACACGU
B2: target 1 G13C,A14G (mixed)
RNA 1: B1 RNA 1
RNA 2: GGGAAUGGAUCCACAUCUACGAAUUCGUACCAUAGAGGCGUUAUCCGCUCACCGAGAUCGGAAGAGCACACGU
B3: target 1 U3C,U11C (mixed)
RNA 1: B1 RNA 1
RNA 2: B2 RNA 2 with G38A, C39G, U41C, U49C
B4: target 1 A9C,A20U (mixed)
RNA 1: B1 RNA 1
RNA 2: B2 RNA 2 with A32U, G38A, C39G, A43C
B5: target 1 insA 3' of 21,insA 3' of 17 (mixed)
RNA 1: B1 RNA 1
RNA 2: GGGAAUGGAUCCACAUCUACGAAUUCGUACCAAUAGAAGAGGUUAUCCGCUCACCGAGAUCGGAAGAGCACACGU
B6: target 1 insU 3' of 14,insG 3' of 9 (mixed)
RNA 1: B1 RNA 1
RNA 2: B1 RNA 2 with G39U, U40G, U45G, C46U, G48C, A49G
B7: target 1 complement block 4-14 (mixed)
RNA 1: B1 RNA 1
RNA 2: GGGAAUGGAUCCACAUCUACGAAUUCGUACCAUAGAGUCCAAUAGGCGUCACCGAGAUCGGAAGAGCACACGU
B8: target 1 G12U,G13C (mixed)
RNA 1: B1 RNA 1
RNA 2: B2 RNA 2 with G38A, G40U
B9: target 1 insA 3' of 8,insC 3' of 5 (mixed)
RNA 1: B1 RNA 1
RNA 2: B1 RNA 2 with U40G, G41U, U43A, A44U, U45A, A49C
B10: target 1 insG 3' of 10,insG 3' of 7 (mixed)
RNA 1: B1 RNA 1
RNA 2: B1 RNA 2 with U40G, G41U, U43G, C47G, G48C, A49G
B11: target 1 U10A,U19C (mixed)
RNA 1: B1 RNA 1
RNA 2: B2 RNA 2 with U33C, G38A, C39G, U42A
B12: target 1 C7G,G12U (mixed)
RNA 1: B1 RNA 1
RNA 2: B2 RNA 2 with G38A, C39G, G40U, C45G
B13: target 1 del3,del13 (mixed)
RNA 1: B1 RNA 1
RNA 2: GGGAAUGGAUCCACAUCUACGAAUUCGUACCAUAGAGAGUUAUCCGCCACCGAGAUCGGAAGAGCACACGU
B14: target 1 C7G,U11C (mixed)
RNA 1: B1 RNA 1
RNA 2: B2 RNA 2 with G38A, C39G, U41C, C45G
B15: target 1 C2A,A20U (mixed)
RNA 1: B1 RNA 1
RNA 2: B2 RNA 2 with A32U, G38A, C39G, C50A
B16: target 1 insG 3' of 22,insC 3' of 20 (mixed)
RNA 1: B1 RNA 1
RNA 2: B5 RNA 2 with C31G, A32C, U34C, A35U, G36A, A37G
B17: target 1 insC 3' of 18,insG 3' of 6 (mixed)
RNA 1: B1 RNA 1
RNA 2: B1 RNA 2 with G35C, A36G, G37A, A38G, G39A, U40G, A49G
B18: target 1 insG 3' of 9,insG 3' of 6 (mixed)
RNA 1: B1 RNA 1
RNA 2: B1 RNA 2 with U40G, G41U, U43A, A44G, A49G
B19: target 1 U3A,A9U (mixed)
RNA 1: B1 RNA 1
RNA 2: B2 RNA 2 with G38A, C39G, A43U, U49A
B20: target 1 insU 3' of 17,insU 3' of 2 (mixed)
RNA 1: B1 RNA 1
RNA 2: B1 RNA 2 with A36U, G37A, A38G, G39A, U40G, A49C, C50U, U51C, C52U
B21: target 1 C4U,C6A (mixed)
RNA 1: B1 RNA 1
RNA 2: B2 RNA 2 with G38A, C39G, C46A, C48U
B22: target 1 U8A,G12C (mixed)
RNA 1: B1 RNA 1
RNA 2: B2 RNA 2 with G38A, C39G, G40C, U44A
B23: target 1 C7G,U19G (mixed)
RNA 1: B1 RNA 1
RNA 2: B2 RNA 2 with U33G, G38A, C39G, C45G
B24: target 1 G17U,A18U (mixed)
RNA 1: B1 RNA 1
RNA 2: B2 RNA 2 with A34U, G35U, G38A, C39G
B25: target 1 U3C,A9G (mixed)
RNA 1: B1 RNA 1
RNA 2: B2 RNA 2 with G38A, C39G, A43G, U49C
B26: target 1 insA 3' of 4,insG 3' of 3 (mixed)
RNA 1: B1 RNA 1
RNA 2: B1 RNA 2 with U40G, G41U, U43A, A44U, U45C, C47G, G48C, C50U, U51G
B27: target 1 A16G,A18U (mixed)
RNA 1: B1 RNA 1
RNA 2: B2 RNA 2 with A34U, A36G, G38A, C39G
B28: target 1 insU 3' of 5,insA 3' of 5 (mixed)
RNA 1: B1 RNA 1
RNA 2: B1 RNA 2 with U40G, G41U, U43A, A44U, U45C, C47G, G48U
B29: target 1 insA 3' of 22,insA 3' of 15 (mixed)
RNA 1: B1 RNA 1
RNA 2: B5 RNA 2 with C31A, A32C, A38G, G39A

The binders below were run against T1, EsCas13d, nuclease-dead (assay: crRNA (strand 1, pre-loaded); Mg2+; 40 mM Tris-HCl pH 7.5, 150 mM NaCl, 6 mM MgCl2, 1 mM DTT, 0.1% Tween-20, 0.2 mg/ml BSA; 25 C; 10 min per concentration, then washed). Settings: tags: His6-TwinStrep-SUMO cleaved; N-terminal SNAP kept (SNAP-Surface 488); label: 3' end held by stalled T7 RNA polymerase.
For B1, the Kd was 15.7 ± 2.7 nM.
In the case of B2, the Kd is reported as 31 ± 5 nM.
In the case of B3, the Kd is reported as 51 ± 8 nM.
B4 gave a Kd of 80 ± 40 nM.
B5 gave a Kd of 41 ± 5 nM.
For B6, the Kd was 28.2 ± 2.9 nM.
In the case of B7, the Kd is reported as 63 ± 31 nM.
With B8 the Kd was 17.5 ± 1.3 nM.
Work on B9 yielded a Kd of 9.4 ± 0.6 nM.
B10 showed a Kd of 12.5 ± 0.6 nM.
In the case of B11, the Kd is reported as 35 ± 4 nM.
With B12 the Kd was 14.3 ± 1.1 nM.
In the case of B13, the Kd is reported as 7.9 ± 0.4 nM.
B14 was tested, and the Kd was 14.6 ± 0.6 nM.
For B15, the Kd was 30.1 ± 1.5 nM.
B16 showed a Kd of 8.4 ± 0.7 nM.
B17 gave a Kd of 58 ± 10 nM.
B18 gave a Kd of 11.2 ± 1.2 nM.
In the case of B19, the Kd is reported as 10.8 ± 0.9 nM.
In the case of B20, the Kd is reported as 15.1 ± 2.2 nM.
With B21 the Kd was 7.52 ± 0.33 nM.
Binder B22 has a Kd of 16.5 ± 1.2 nM.
With B23 the Kd was 34 ± 10 nM.
Work on B24 yielded a Kd of 29.8 ± 2.8 nM.
In the case of B25, the Kd is reported as 30.5 ± 3.2 nM.
With B26 the Kd was 6.5 ± 0.4 nM.
B27 showed a Kd of 86 ± 13 nM.
For B28, the Kd was 13.9 ± 0.6 nM.
B29 gave a Kd of 7.9 ± 0.4 nM.
